PMC9977449, “Discovery of lipid-mediated protein–protein interactions in living cells using metabolic labeling with photoactivatable clickable probes†” (Chemical Science, 2023)
Residue numbers refer to the chain shown, from its start.

Assays:
[1] = target: T1, FSP1-TST, wild type, from cells under NMT inhibition (UniProt Q9BRQ8 1-373); experiment: co-IP; as a2, wild-type FSP1-TST with NMT inhibition of the cells; details: partners not purified
T1 construct: FSP1 (ferroptosis suppressor protein 1); same construct as m3; not shown: Twin-Strep-tag, C-terminal, kept
T1 sequence (looked up): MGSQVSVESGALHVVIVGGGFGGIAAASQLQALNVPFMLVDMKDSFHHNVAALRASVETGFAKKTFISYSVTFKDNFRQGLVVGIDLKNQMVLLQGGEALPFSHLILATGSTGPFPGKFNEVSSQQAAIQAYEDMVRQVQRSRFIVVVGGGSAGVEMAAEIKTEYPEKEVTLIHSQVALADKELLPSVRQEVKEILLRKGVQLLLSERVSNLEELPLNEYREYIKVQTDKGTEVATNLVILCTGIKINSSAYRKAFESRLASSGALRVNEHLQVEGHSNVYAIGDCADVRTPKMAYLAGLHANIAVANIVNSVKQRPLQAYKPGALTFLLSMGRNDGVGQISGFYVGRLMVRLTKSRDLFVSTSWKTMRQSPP

[2] = target: T2, FSP1-TST, myristoylation-deficient G2A mutant (UniProt Q9BRQ8 1-373, G2A); experiment: co-IP; TST-tagged protein (WT or G2A) transfected in HEK293 cells, captured on Strep-Tactin resin; blot with TRA2B or TOMM40 antibody, signal normalised to the bait's signal; details: partners not purified
T2 construct: FSP1 (ferroptosis suppressor protein 1) with G2A; also called FSP1 G2A mutant; source: HEK293, transfected, in lysate; not shown: Twin-Strep-tag, C-terminal, kept
T2 sequence (looked up): T1 sequence (looked up) with G2A

co-immunoprecipitated TOMM40, percent of WT [1]: 28 % of WT
co-immunoprecipitated TOMM40, percent of WT FSP1 [2]: 22 % of WT FSP1
B1: TOMM40, mitochondrial protein that facilitates protein import into mitochondria (natural protein, human (endogenous in HEK293), UniProt O96008 1-361, looked up)
chain: MGNVLAASSPPAGPPPPPAPALVGLPPPPPSPPGFTLPPLGGSLGAGTSTSRSSERTPGAATASASGAAEDGACGCLPNPGTFEECHRKCKELFPIQMEGVKLTVNKGLSNHFQVNHTVALSTIGESNYHFGVTYVGTKQLSPTEAFPVLVGDMDNSGSLNAQVIHQLGPGLRSKMAIQTQQSKFVNWQVDGEYRGSDFTAAVTLGNPDVLVGSGILVAHYLQSITPCLALGGELVYHRRPGEEGTVMSLAGKYTLNNWLATVTLGQAGMHATYYHKASDQLQVGVEFEASTRMQDTSVSFGYQLDLPKANLLFKGSVDSNWIVGATLEKKLPPLPLTLALGAFLNHRKNKFQCGFGLTIG
modifications: myristoylated (the paper: 'is itself also myristoylated')
notes: TOMM40, endogenous in HEK293 cells, detected with a TOMM40 antibody; source: endogenous, HEK293 lysate
